Data as given in patent WO2009024653A1 (dated 2009).

Key:
[1] = target: T1, RHD5, human monoclonal IgG1 antibody directed against the C1 domain of factor VIII (LMBP 6165CB); assay: cell-based or functional assay
[2] = target: T1, RHD5, human monoclonal IgG1 antibody …; assay: SPR (Biacore), RHD5 immobilised on a CM5 chip, 18B6 injected
[3] = target: T1, RHD5, human monoclonal IgG1 antibody …; assay: competition ELISA, coated recFVIII, RHD5 at 2 ug/ml pre-incubated with 18B6

T1 sequence (VH, as listed by the source, chain 1 of 2): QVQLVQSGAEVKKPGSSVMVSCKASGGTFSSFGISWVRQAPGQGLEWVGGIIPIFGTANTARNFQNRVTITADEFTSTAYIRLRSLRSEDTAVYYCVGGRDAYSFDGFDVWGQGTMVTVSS
T1 sequence (VL, as listed by the source, chain 2 of 2): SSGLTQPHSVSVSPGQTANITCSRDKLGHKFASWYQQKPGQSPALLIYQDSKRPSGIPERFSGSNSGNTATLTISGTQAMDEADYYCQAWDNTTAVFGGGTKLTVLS

B1: anti-idiotypic monoclonal antibody 18B6 (produced by hybridoma 18B6, CNCM I-3559) (antibody, mouse IgG1, V domains shown)
VH: QVQLQQSGAELAKPGASVKMSCKASGYTFTTYWMHWIKQRPGQDLEWIGYINPTSGYTEYNQNFKDKATLTADKSSSTAYMQLNSLTSEDSAVYFCARSGAYYRYDDAMDSWGQGTSVTVSS
VL: QIVLSQSPAILSASPGEKVTMTCRASSSVSYMNWYQQKPGSSPKPWIYATSNLASGVPARFSGSGSGTSYSLTISRVEAEDAATYYCQQWSSNPPMLTFGAGTKLELK
notes: also called anticorps anti-idiotypique 18B6; clone 18B6 anti-RHD5
neutralisation of the inhibitory (anti-FVIII) activity of RHD5, chromogenic factor VIII test (DADE), RHD5 0.4 ug/ml, FVIII Kogenate 0.5 U/ml [1]: 50 % neutralisation at an equimolar RHD5/18B6 ratio
koff [2]: 1.45e-05 s⁻¹
kon [2]: 4260 M⁻¹ s⁻¹
RHD5/18B6 molar ratio at 50% inhibition of RHD5 binding to FVIII [3]: 2.5 molar ratio RHD5/18B6
percent inhibition of RHD5 binding to FVIII at an equimolar ratio [3]: 92%
